31 sequences from a protein production outcome set (Wang et al. 2014) can be followed below.
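Further: failed if final PepcDB status was selected cloned or expressed and not failed if soluble or beyond.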

The nature of this data set: label from the status in PepcDB records.
For the sequence “IKSISKDYFDYLQTESKFIPLENETIEFYSPIVDYFGDSISVNISFSGDRYKLTDHGETLWNMEQLGIDLTSNKKQKKYQLLNNIVQNYSLVIENKHINFYTNRINLSQAIHDYVLAISEISYLGILKKENIKSLFKDEVMQYFLSNRKIYPNIFPEFKVEGKSKLIHSFEAVFPGEATEYVKTIKRIDKNNAKNVLFDWNDVEIHRNKNFDSNARLNIITEQQDDISEAVSTMLSQYNVEVFSFENKKQLEEKF”, the protein production entry is reported as “failed”.
In the case of “IKVGKAKLLNQVLVNLPTSISQQTIAETDGDSAGSDSFPVGRTHHRWYLCHFGQSLIHVIQVVIGYFIMLAVMSYNTWIFLGVVLGSAVGYYLAYPLLSTA”, the protein production result was “not failed”.
Consider “ILFSVVIGSFTPAHPIASETNPKVENAKDAPEIEPFSEQAVEELHRQKKPLFIYFSADWCLTCKVNEKMAIDRDSTRQAFRQKGIVTLHGDWTNGDPEITHFLSKMHRSGIPLYLYYPADGEIQI”, for which the protein production result was “failed”.
Under “IMAKTAKVAVSQIVEHPALDATRQGLLDGLKAKGYEEGKNLEFDYKTAQGNPAIAVQIARQFVGENPDVLVGIATPTAQALVSATKTIPIVFTAVTDPVGAKLVKQLEQPGKNVTGLSDLSPVEQHVELIKEILPNVKSIGVVYNPGEANAVSLMELLKLSAAKHGIKLVEATALKSADVQSATQAIAEKSDVIYALIDNTVASAIEGMIVAANQAKTPVFGAATSYVERGAIASLGFDYYQIGVQTADYVAAILEGKEPGSLDVQVAKGSDLVINKTAAEQLGITIPEAVLARATSTK” stands “not failed”; under “INVRLKFLNDTEELAVARPEDTVGTLKSKYFPGQESQMKLIYQGRLLQDPARTLSSLNITNNCVIHCHRSPPGAAVSGPSAS”, “not failed”.
For the sequence “IPELKDHLRIFRPRKLTLKGYRQHWVVFKETTLSYYKSQDEAPGDPIQQLNLKGCEVVPDVNVSGQKFCIKLLVPSPEGMSEIYLRCQDEQQYARWMAGCRLASKGRTMADSSYTSEVQAILAFLSLQRT”, the protein production result is reported as “not failed”.
Under “IPLKSIEVPFEGELLPGYAIISEDKAQDTLIVVGGGDTSREDLFYMLGYSGWEHDYNVLMVDLPGQGKNPNQGLHFEVDARAAISAILDWYQAPTEKIAIAGFSGGGYFTAQAVEKDKRIKAWIASTPIYDVAEVFRISFSTALKAPKTILKWGSKLVTSVNKVAEVNLNKYAWQFGQVDFITSVNEVLEQAQIVDYNKIDVPSLFLVGAGEDSELMRQSQVLYDNFKQRGIDVTLRKFSSESGADAHCQVNNFRLMHYQVFEWLNHIFKKKD” stands “failed”; under “IPVFNITSNRGRLLQQISVGDIWGVGRQWANKLISRGIHTAYDLAMTNPHLLKKCFNAVLMRTAMELQGIACGG”, “failed”; under “IQHATASLIQTNTDQELLVVDVTPSFASLWLVPNINDFHQRHPNIRVKILTGDGAVKNIHGESDLHVRCLPLSTHYEYSQLLCEETLLLIGNTNLPKLSDNQAISHYPFIPQTTRPQLWEQFKQENDLECPITYHSVGFEHFYLACEAVRMEKGLALLPDFMAQFSILRGDIQHIGNLKLHSGYGYYVVIPNFRLTSRKVALFHDWLKDKLTHHT”, “not failed”.
Take “IQNNEATLRCIVENLPIFFGMRTINFSNWYYINPSFESLTGYTPDEMYEDPLLWQKIHREEYAENLEQARPNLGEWTIFSMEKKDGTQIWAQTVEFLVDDLSDTARVVVFGQDITDIKRAEIETLRSLVKERELNEAKSQFVDIVSHEFRTPLTSIIGF”: the protein production result is on record as “failed”.
Regarding “ISLKYTAARLHEKGVLLEIEDLQVNQFKNVIFEISPTEEVGDFEVKAKFMGVQMETFMLHYQDLLQLQYEGVAVMKLFDRAKVNVNLLIFLLNKKFYGK”, the protein production result is on record as “not failed”.
Under “ITERHLIEESLKESQQRWEFALEGSGDGIWDWGVMEDRLFLSARLQEMFGYARGEMGESMEQASSFILKEDRARVLSTLYRFLKEGEGQYADEFRVNCKEGGYRWIFSRGMVVKRNAQGEAARMIGIFTDI” stands “failed”.
Under “IVAQGEDFVVSGALNLSLIRERTGFQAKATEDYQTLAGLVMSLLDRLPSTGDSLSWQGWNLQVVGVEERRVTRVLLQKQPAASAGK” stands “failed”; under “IVMADWLKIRGTLKSWTKLWCVLKPGVLLIYKTQKNGQWVGTVLLNACEIIERPSKKDGFCFKLFHPLEQSIWAVKGPKGEAVGSITQPLPSSYLIIRATSESDGRCWMDALELALK”, “not failed”.
Under “IVPDAQDLGKSYGIRPSFIIAQAALDSDFGEKILANKYHNLFGLLAEPGTPSITLNDSSTGKKQEKQFTHYKSWKYSMYDYLAHIKSGATGKKDSYTIMVSVKNPKTLVQKLQDSGFDNDKKYAKKMTEIIDLYDLTRYDK” stands “failed”; under “KALGSKEIPKGAENCLEGLIFVITGVLESIERDEAKSLIERYGGKVTGNVSKKTNYLVMGRDSGQSKSDKAAALGTKIIDEDGLLNLIRTMPGKKSKYEIAVETE”, “not failed”.
Regarding “KAPLDEIADDSFWSDETLVKYYVNDLYSEISVDGLQLQENRSDNSVSAQRDKYRASWFKFNYDMVSASDPQDDDVWEDYYVKVRKCNRFFERIGTSTIEESEKSRLTGEVHFLRAMFYFEMVKRYGGVILLDKVLTMEDNWEIPRSSEKECYDFILEDLKKATEMLPASYGSREKGRATKGAAYALKSRVELYDKRYEDVIKSCAEVYKLGYELVDGTTPEKYRSIWWTTNKDNKEIIFDVQYKSPDVYNNMMVCNMVTYINDKYGDRGWGGLGPTQELIDAFEMADGTPATQYSQAPADQVFDINTCGIYEGREPRFYANIVFHGSQIFFNADKGAVTVDRYLMDTPDKGDGSLTGYNVWKWIDYDNYNYPYAGAGSPDFSTNWIILRYAEIYLNDAEARLETGDVEGARKAVNMIRQRVGLPDLTESDPEKLRELIRKERRIEFAFEEQRFYDVRRWKIGPETQTTLHGVRFVSPTEFKVTKTDIRTWNDRLYLTPVPHDEIVRSSVLKQNLGY”, the protein production result is on record as “not failed”.
Regarding “KDDDNVETGAFDPSKPVAISDFTPKEGGAYQKLLIYGENFGTDVSKVKVKIGGKDAIVINVKSTYVYCFVPSGAFSGEIEITVGEGENAVTTTASTTFSYEKKMVVGTLCGYRNNRDDQGWRDGPFDGPEGVKCCGFSDNGRLAFDPLNKDHLYICYDGHKAIQLIDLKNRMLSSPLNINTIPTNRIRSIAFNKKIEGYADEAEYMIVAIDYDGKGDESPSVYIIKRNADGTFDDRSDIQLIAAYKQCNGATIHPINGELYFNSYEKGQVFRLDLVDYFKTIKNGGSWDPIVKNNPNTFKQLFTIADPSWEFQIFIHPTGKYAYFGVINNHYFMRSDYDEIKKEFITPYNFVGGYKQSGYRDDVGTEARMNNPCQGVFVKNPDYTGEEEYDFYFVDRLNFCVRKVTPEGIVSTYAGRGASTSLADGNQWGTDDGDLREVARFRDVSGLVYDDVKEMFYVHDQVGHTIRTISMEQEENVAGDENIPEDESTVESNE”, the protein production entry was “not failed”.
Under “KELIQNIIEESYTDSQFTLSVLSEKLDLSSGYLSIMFKKNFGIPFQDYLLQKRMEKAKLLLLTTELKNYEIAEQVGFEDVNYFITKFKKYYQITPKQYRE” stands “not failed”; under “KFDSDIDEVVYGSRLIGSDPDLVLHGGGNTSVKTTERDHAGRIISVLRVKNSGSNLGTIDSRGFTGIRMDDALAAAKIDKMTDEAMVDYLKKSMVNPSEPSPSVETFLHAFLPYKFVMHSHADAILSITNTDLPSDQIAKILGNVVVLPYIPPGFTLAKEVMNCFKKGIDGIVLRKHGLLTFGDTGKEAYDRHINIVSRAENFIREKTDGK”, “not failed”; under “KGESYKGKVAVASVVLNRTEKKGFPDTIRGVIYQKNAFEPVANGSINQKPDKESIEAAEEALSSKNRETDAIFFYNPKTASDNWIRSRKIVEKIGRHVFAV”, “not failed”.
For “KIADWLELHPAEKRKPWCVGIPRLAELAWQRVVAQRDTFGEAQLAHRIRDYLPEQGQLFVGNSLVVRLIDALSQLPAGYPVYSNRGASGIDGLLSTAAGVQRASAKSTLAIVGDLSALYDLNALALLRQVSAPFVLIVVNNNGGQIFSLLPTPQSKRERFYLMPQNVHFDHAAAMFNLRYHRPENWEELESALAGAWRTPATTVIELVVNDTDGAQTLQQLLAQVSHL”, the protein production result is “failed”.
In the case of “KIIHIDCDCFYAALEMRDDPSLRGKALAVGGSPDKRGVVATCSYEARAYGVRSAMAMRTALKLCPDLLVVRPRFDVYRAVSKQIHAIFRDYTDLIEPLSLDEAYLDVSASPHFAGSATRIAQDIRRRVAEELHITVSAGVAPNKFLAKIASDWRKPDGLFVITPEQVDGFVAELPVAKLHGVGKVTAERLARMGIRTCADLRQGSKLSLVREFGSFGERLWGLAHGIDERPVEVDSRRQSVSVECTFDRDLPDLAACLEELPTLLEELDGRLQRLDGSYRPDKPFVKLKFHDFTQTTVEQSGAGRDLESYRQLLGQAFARGNRPVRLIGVGVRLLDLQGAHEQLR”, the protein production entry was “failed”.
With “KKGRFRERYSTRILDALPDMLTVFDHNANIVELASSPTTNHVEGTTSDSIINSNVKDIVPEEAYESVRHNMDKVIHTGKSSTAEHSLMLDGVLHHYENRIFPLDDQYLLCMCRDVS”, the protein production result is “failed”.
Take “KKPEGKPDQKFDQKQELGRVIHLSNLPHSGYSDSAVLKLAEPYGKIKNYILMRMKSQAFIEMETREDAMAMVDHCLKKALWFQGRCVKVDLSEKYKKLV”: the protein production entry is given as “not failed”.
The value for “KKYSYAVTTCIKHINKNVYDGISLNELANHLEITPTYLSKLFKKEMGITLSEYIQRERVEEAKKLLTLTTYSLSDICAWLNFNDQSYFIRVFKKITSMTPRQYREKYTV” was “failed”; that for “KLGMKPVSDVSRVTIKRAKNVLFVISKPDVYKSPNAETYVIFGEAKVDDLSSQLQTQAAQRFKMPDVTSMLPNAGSEATMAPLAEEEDEDDVDDTGVEARDIDLVMTQAGVSKAKAVSALKANDGDIVSAIMELTT” was “failed”.
The value for “KLLAEALELTEDQYVVSFQSQFGRAKWVTPSTQDLFGKLPKQGVTELDVFCPGFLADCLETMEEIALMGREQFYEAGGKSYRYIPCLNDNPDWIDALVALAEENLGSWR” was “failed”; that for “KLPFDYQVNSTRHFMRELNRLGVTGAIDAGGGFQNYPDDYAVIQKLDEEGLLTIRLAYNLFTQKPKGEKDDFLNWTKTSKYKQGNDYFRHNGAGEMLVFSAADFEDFRVPRPDMPPEMEGELEEVVRILVQNKWPWRLHATYDETISRALDVFEKVNQDTPLDGLHWFFDHAETISDRSIDRIAALGGGIAVQHRMAYQGEYFVERYGFGAAEATPPVRRILDSGVKVSAGTDATRVASYNPWVSLSWLVTGRTVGGLRITPQRNCLDRETALRMWTENVTWFSNEEGN” was “failed”.
Under “KLRDLDIIVTAPPAPGWGGRYWILVKLTTDDGITGWGECYAASVGPEAMRAVIEDVFARHMEGENPENIELMFRRVYSSGFTQRPDLTAIGAFSGLEIACWDILGKARGRPVWALLGGKMNPRIRAYTYLYPLPHHPITPFWTSADMAAESAADCVARGYTAVKFDPAGPYTLRGGHMPAMTDISLSVEFCRKIRAAVGDKADLLFGTHGQFTTAGAIRLGQAIEPYSPLWYEEPVPPDNVGAMAQVARAVRIPVATGERLTTKAEFAPVLREGAAAILQPALGRAGGIWEMKKVAAMAEVYNAQMAPHLYAGPVEWAANVHFAASIPNILMCESIETPFHDALIKGSIRVEGGYITPPEAPGLGIEVDEALARANPYHGTGLHLEMQEASCDYTNGNSFAGGAPHEEG” stands “not failed”.
Turning to “KMPSPYSHKEFVKEIAPTAQKLSKIYGVRSSIIIGQAALDSHFGSTLLASKYHNLFSIEASPGQGAVRLKSHEYKNGRWQEVTNRYLVYESWKESLYDYMAILHGNKIWDKALYTTMMTSSGYKTVARALQAAGFNSDPNYADKLIAVIEENNL”, the protein production result was “not failed”.
